In patent US20090054327A1 one finds extent of lateral association with actin filaments (stoichiometry) (actin monomers per utrophin molecule), Bmax (actin monomers per dystrophin molecule) and Kd data, which are given here for 2 substances.

For assay [1], the target named is actin filaments. Description: F-actin high-speed co-sedimentation, direct comparison with dystrophin.
The target in assay [2] is actin filaments. Description: F-actin high-speed co-sedimentation.

As a reminder, the Kd is the free concentration of one partner at which half of the binding sites on the other are occupied at equilibrium, for simple one-to-one binding. A high value points to weaker binding.

In turn, “full-length recombinant utrophin (from UniProt G3V7L1 1-3418)” came in with an extent of lateral association with actin filaments (stoichiometry) (actin monomers per utrophin molecule) with actin filaments [1] of 14.

For the substance “recombinant full-length mouse dystrophin (from UniProt P11531 1-3678)”, in the assay with actin filaments [2], the Bmax (actin monomers per dystrophin molecule) amounted to 24 and the equilibrium dissociation constant (Kd) was found to be 400 nM.
